Laboratory results reported in patent US20240124607A1 (Merck Sharp & Dohme, published 2024).

T1: CEACAM5 Nterm IgV-His (human, UniProt P06731 35-144)
T1 construct: also called N-term domain of hCEACAM5
T1 sequence: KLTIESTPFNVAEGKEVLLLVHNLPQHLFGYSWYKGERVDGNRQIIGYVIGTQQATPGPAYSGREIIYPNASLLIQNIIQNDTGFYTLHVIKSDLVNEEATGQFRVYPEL

T2: CEACAM5 N-A1-B1-His (human, UniProt P06731 35-322, limits assumed)
T2 sequence: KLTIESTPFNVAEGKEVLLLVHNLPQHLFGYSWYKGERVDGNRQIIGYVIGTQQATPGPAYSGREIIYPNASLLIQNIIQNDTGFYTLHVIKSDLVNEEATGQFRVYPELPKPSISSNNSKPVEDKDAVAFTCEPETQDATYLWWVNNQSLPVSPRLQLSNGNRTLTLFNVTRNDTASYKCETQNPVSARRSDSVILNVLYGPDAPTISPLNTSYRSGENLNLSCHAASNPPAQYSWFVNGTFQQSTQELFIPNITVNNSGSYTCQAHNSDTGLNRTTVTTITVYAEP

T3: Human CEACAM5 (E398) (human, UniProt P06731 35-685, limits assumed)
T3 construct: also called hCEACAM5
T3 sequence: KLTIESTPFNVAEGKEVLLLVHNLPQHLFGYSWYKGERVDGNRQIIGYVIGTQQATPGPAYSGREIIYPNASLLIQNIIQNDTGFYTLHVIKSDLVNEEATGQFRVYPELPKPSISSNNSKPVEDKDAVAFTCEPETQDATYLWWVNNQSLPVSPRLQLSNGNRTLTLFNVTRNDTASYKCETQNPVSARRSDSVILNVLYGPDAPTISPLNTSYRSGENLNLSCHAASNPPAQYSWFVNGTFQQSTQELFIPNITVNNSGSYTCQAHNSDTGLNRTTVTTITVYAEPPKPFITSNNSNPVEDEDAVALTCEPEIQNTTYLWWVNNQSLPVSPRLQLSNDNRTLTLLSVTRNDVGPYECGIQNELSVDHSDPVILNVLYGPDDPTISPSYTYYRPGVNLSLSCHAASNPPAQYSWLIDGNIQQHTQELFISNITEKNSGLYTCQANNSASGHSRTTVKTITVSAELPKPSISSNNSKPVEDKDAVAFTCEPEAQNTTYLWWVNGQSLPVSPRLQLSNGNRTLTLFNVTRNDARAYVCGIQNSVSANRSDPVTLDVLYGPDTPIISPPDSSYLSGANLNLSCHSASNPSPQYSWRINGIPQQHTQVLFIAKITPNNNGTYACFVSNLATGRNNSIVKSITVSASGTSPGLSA

T4: human CEACAM6 on Ba/F3 cells (human, UniProt P40199 35-320)
T4 construct: whole, on cells
T4 sequence (looked up): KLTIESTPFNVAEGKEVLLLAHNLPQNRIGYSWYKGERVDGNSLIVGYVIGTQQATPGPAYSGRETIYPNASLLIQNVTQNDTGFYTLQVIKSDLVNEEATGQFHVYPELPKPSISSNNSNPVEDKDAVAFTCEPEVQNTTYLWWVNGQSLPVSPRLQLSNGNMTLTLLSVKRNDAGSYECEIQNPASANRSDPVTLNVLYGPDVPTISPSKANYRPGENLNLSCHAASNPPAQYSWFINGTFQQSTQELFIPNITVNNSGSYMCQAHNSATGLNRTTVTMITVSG


Legend:
CEACAM5 Nterm IgV-His = biological target: T1, CEACAM5 Nterm IgV-His; test: SPR, hFc capt, 37C
Procedure: (§1) The various hCEACAM5 protein domains were titrated over the captured antibody at 50 μL/min for 180 sec of association and 300 sec of dissociation. The assay was run at 37° C. in HBS-EP+ running buffer, pH 7.4. The surface of the CM5 chip was regenerated using 3M MgCl₂.

CEACAM5 N-A1-B1-His = biological target: T2, CEACAM5 N-A1-B1-His; test: SPR, hFc capt, 37C
Procedure: as §1

[1] = biological target: T5, human CD16A (FcγRIIIA) V158 (human, UniProt P08637 17-208, limits assumed, biotinylated in the assay of Table 21); test: SPR, biotin-CD16A on SA chip, 25C, pH 6.0
T5 construct: also called CD16A (V158/V176)
T5 sequence (P08637 17-208 F176V limits assumed): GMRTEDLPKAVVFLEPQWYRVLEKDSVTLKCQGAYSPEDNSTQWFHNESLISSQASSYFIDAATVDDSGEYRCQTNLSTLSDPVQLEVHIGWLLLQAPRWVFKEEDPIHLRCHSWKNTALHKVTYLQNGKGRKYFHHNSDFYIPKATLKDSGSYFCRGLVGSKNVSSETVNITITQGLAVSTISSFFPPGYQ
Procedure: (§2) Binding to human and cynomolgus CD16A was assessed using biotinylated CD16A captured on a streptavidin (SA) sensor chip (Cytiva, #BR100531). AB0411, AB0466, or AB0621 was titrated from 1500 nM at 25° C. at 30 μL/min for 150 sec association followed by 300 sec dissociation. The surface of the chip was regenerated with 2 mM sodium hydroxide for 5 sec at 30 μL/min. Running buffer was HBS-EP+. […] The V158 isoform bound ˜2- to 3-fold tighter than the F158 isoform as expected.

Cyno FcγRIIIA = biological target: T6, Cyno FcγRIIIA (cynomolgus monkey, UniProt Q8SPW2 17-208, limits assumed, biotinylated); test: SPR, biotin-CD16A on SA chip, 25C, pH 6.0
T6 construct: also called cynomolgus CD16A
T6 sequence (Q8SPW2 17-208 limits assumed): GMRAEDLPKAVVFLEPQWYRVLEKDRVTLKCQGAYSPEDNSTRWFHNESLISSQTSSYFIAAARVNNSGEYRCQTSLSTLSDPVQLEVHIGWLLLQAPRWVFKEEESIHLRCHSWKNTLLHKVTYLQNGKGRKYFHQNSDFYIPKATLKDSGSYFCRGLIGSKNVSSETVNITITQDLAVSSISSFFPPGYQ
Procedure: as §2

Human CEACAM5 (E398) = biological target: T3, Human CEACAM5 (E398); test: SPR, anti-hFc capture, 37C, pH 6.0
Procedure: To determine the affinity and cross-reactivity of CEACAM5 TriNKET molecules, AB0411, AB0466, or AB0621 TriNKETs were captured using an anti-human Fc capture antibody (Cytiva, #BR100839) immobilized onto a Biacore CM5 standard surface sensor chip following manufacturer instructions. Human or cynomolgus CEACAM5 were titrated over captured AB0411, AB0466, and AB0621 as 2-fold serial dilutions starting from 300 nM. Association was monitored for 300 sec and dissociation was monitored for 600 sec. The assay was run at 37° C. at pH 7.4 and 6.0. The surface of the CM5 chip was regenerated with 10 mM glycine pH 1.5 for 20 sec at 100 μL/min.

[2] = biological target: T4, human CEACAM6 on Ba/F3 cells; test: flow cytometry on Ba/F3 cells expressing human CEACAM6, fold over background (FOB), 5-fold dilutions from 1600 nM
Procedure: To examine the binding specificity of the TriNKETs to CEACAM5 compared to other CEACAM family members, Ba/F3 cells were engineered to express one of human CEACAM1, CEACAM6, CEACAM8, or cynomolgus CEACAM5. CEACAM5 TriNKETs were evaluated by flow cytometry starting at 1600 nM followed by 7 5-fold dilutions.

Kd (CEACAM5 Nterm IgV-His) [nM] | kon (CEACAM5 Nterm IgV-His) [M⁻¹ s⁻¹] | Kd (CEACAM5 N-A1-B1-His) [nM] | kon (CEACAM5 N-A1-B1-His) [M⁻¹ s⁻¹] | Kd [1] [nM] | koff [1] [s⁻¹] | kon [1] [M⁻¹ s⁻¹] | Kd (Cyno FcγRIIIA) [nM] | koff (Cyno FcγRIIIA) [s⁻¹] | kon (Cyno FcγRIIIA) [M⁻¹ s⁻¹] | Kd (Human CEACAM5 (E398)) [nM] | kon (Human CEACAM5 (E398)) [M⁻¹ s⁻¹] | binding result [2] | Binder
1.4 | 1.1e+06 | 5.5 | 240000 | 47 | 0.038 | 820000 | 19 | 0.047 | 2.4e+06 | 15 | 160000 | no binding (tested: 1600 nM) | AB0466 F3' CEACAM5 TriNKET (bispecific antibody, human IgG1, kappa) not shown heavy: EVQLVESGGGLVKPGGSLRLSCAASGFTFSSYSMNWVRQAPGKGLEWVSSISSSSSYIYYADSVKGRFTISRDNAKNSLYLQMNSLRAEDTAVYYCARGAPIGAAAGWFDPWGQGTLVTVSSASTKGPSVFPLAPSSKSTSGGTAALGCLVKDYFPEPVTVSWNSGALTSGVHTFPAVLQSSGLYSLSSVVTVPSSSLGTQTYICNVNHKPSNTKVDKKVEPKSCDKTHTCPPCPAPELLGGPSVFLFPPKPKDTLMISRTPEVTCVVVDVSHEDPEVKFNWYVDGVEVHNAKTKPREEQYNSTYRVVSVLTVLHQDWLNGKEYKCKVSNKALPAPIEKTISKAKGQPREPQVCTLPPSRDELTENQVSLTCLVKGFYPSDIAVEWESNGQPENNYKTTPPVLDSDGSFFLYSWLTVDKSRWQQGNVFSCSVMHEALHNHYTQKSLSLSPG light: DIQMTQSPSSVSASVGDRVTITCRASQGISSWLAWYQQKPGKAPKLLIYAASSLQSGVPSRFSGSGSGTDFTLTISSLQPEDFATYYCQQGVSFPRTFGGGTKVEIKRTVAAPSVFIFPPSDEQLKSGTASVVCLLNNFYPREAKVQWKVDNALQSGNSQESVTEQDSKDSTYSLSSTLTLSKADYEKHKVYACEVTHQGLSSPVTKSFNRGEC
0.31 | 1.4e+06 | 1.2 | 360000 | 36 | 0.029 | 830000 | 16 | – | – | 1.9 | 310000 | – | AB0411 F3' CEACAM5 TriNKET (bispecific antibody, human IgG1, kappa) DIQLTQSPATLSVSPGERATLSCRASQSVSSSYLAWYQQKPGQAPRLLIYGASSRATGIPDRFSGSGSGTDFTLTISRLEPEDFAVYYCQQYNNWPLTFGCGTKVEIKGGGGSGGGGSGGGGSGGGGSQVQLVQSGGGLVQPGGSLRLSCAASGFTFTSYAMSWVRQAPGKCLEWVSAISGTGDSTFYADSVKGRFTFSRDNSKNTLYLQMNSLRAEDTAVYYCAKDLGWLQYGLFDYWGQGTLVTVSSGSDKTHTCPPCPAPELLGGPSVFLFPPKPKDTLMISRTPEVTCVVVDVSHEDPEVKFNWYVDGVEVHNAKTKPREEQYNSTYRVVSVLTVLHQDWLNGKEYKCKVSNKALPAPIEKTISKAKGQPREPRVYTLPPCRDELTKNQVSLTCLVKGFYPSDIAVEWESNGQPENNYKTTPPVLVSDGSFTLYSKLTVDKSRWQQGNVFSCSVMHEALHNHYTQKSLSLSPG heavy: EVQLVESGGGLVKPGGSLRLSCAASGFTFSSYSMNWVRQAPGKGLEWVSSISSSSSYIYYADSVKGRFTISRDNAKNSLYLQMNSLRAEDTAVYYCARGAPIGAAAGWFDPWGQGTLVTVSSASTKGPSVFPLAPSSKSTSGGTAALGCLVKDYFPEPVTVSWNSGALTSGVHTFPAVLQSSGLYSLSSVVTVPSSSLGTQTYICNVNHKPSNTKVDKKVEPKSCDKTHTCPPCPAPELLGGPSVFLFPPKPKDTLMISRTPEVTCVVVDVSHEDPEVKFNWYVDGVEVHNAKTKPREEQYNSTYRVVSVLTVLHQDWLNGKEYKCKVSNKALPAPIEKTISKAKGQPREPQVCTLPPSRDELTENQVSLTCLVKGFYPSDIAVEWESNGQPENNYKTTPPVLDSDGSFFLYSWLTVDKSRWQQGNVFSCSVMHEALHNHYTQKSLSLSPG light: DIQMTQSPSSVSASVGDRVTITCRASQGISSWLAWYQQKPGKAPKLLIYAASSLQSGVPSRFSGSGSGTDFTLTISSLQPEDFATYYCQQGVSFPRTFGGGTKVEIKRTVAAPSVFIFPPSDEQLKSGTASVVCLLNNFYPREAKVQWKVDNALQSGNSQESVTEQDSKDSTYSLSSTLTLSKADYEKHKVYACEVTHQGLSSPVTKSFNRGEC
– | – | – | – | – | – | – | – | – | – | – | – | no binding (tested: 1600 nM) | AB0264 F3' CEACAM5 TriNKET (bispecific antibody, human IgG1, kappa) DIVMTQSPDSLAVSLGERATINCKSSHSLLYGNFQNNYLAWYQQKPGQPPKLLIYWASTRESGVPDRFSGSGSGTDFTLTISSLQAEDVAVYYCQQYYSYPYTFGCGTKLEIKGGGGSGGGGSGGGGSGGGGSQVQLVQSGAEVKKPGASVKVSCKASGYTFTAYTIHWVRQAPGQCLEWMGYINPSSGYTEYNQKFKDRTTLTADTSIPTAYMELSRLRSDDTAVYYCTREGGLLWFDYWGQGTLVTVSSGSDKTHTCPPCPAPELLGGPSVFLFPPKPKDTLMISRTPEVTCVVVDVSHEDPEVKFNWYVDGVEVHNAKTKPREEQYNSTYRVVSVLTVLHQDWLNGKEYKCKVSNKALPAPIEKTISKAKGQPREPRVYTLPPCRDELTKNQVSLTCLVKGFYPSDIAVEWESNGQPENNYKTTPPVLVSDGSFTLYSKLTVDKSRWQQGNVFSCSVMHEALHNHYTQKSLSLSPG heavy: EVQLVESGGGLVKPGGSLRLSCAASGFTFSSYSMNWVRQAPGKGLEWVSSISSSSSYIYYADSVKGRFTISRDNAKNSLYLQMNSLRAEDTAVYYCARGAPIGAAAGWFDPWGQGTLVTVSSASTKGPSVFPLAPSSKSTSGGTAALGCLVKDYFPEPVTVSWNSGALTSGVHTFPAVLQSSGLYSLSSVVTVPSSSLGTQTYICNVNHKPSNTKVDKKVEPKSCDKTHTCPPCPAPELLGGPSVFLFPPKPKDTLMISRTPEVTCVVVDVSHEDPEVKFNWYVDGVEVHNAKTKPREEQYNSTYRVVSVLTVLHQDWLNGKEYKCKVSNKALPAPIEKTISKAKGQPREPQVCTLPPSRDELTENQVSLTCLVKGFYPSDIAVEWESNGQPENNYKTTPPVLDSDGSFFLYSWLTVDKSRWQQGNVFSCSVMHEALHNHYTQKSLSLSPG light: DIQMTQSPSSVSASVGDRVTITCRASQGISSWLAWYQQKPGKAPKLLIYAASSLQSGVPSRFSGSGSGTDFTLTISSLQPEDFATYYCQQGVSFPRTFGGGTKVEIKRTVAAPSVFIFPPSDEQLKSGTASVVCLLNNFYPREAKVQWKVDNALQSGNSQESVTEQDSKDSTYSLSSTLTLSKADYEKHKVYACEVTHQGLSSPVTKSFNRGEC
